One substance from doi:10.1101/2021.05.19.444868 can be followed below.

The target in the assay is trimeric post-fusion hMPV B2 F protein (trypsinized) (human metapneumovirus (hMPV), subgroup B2 | T4 bacteriophage). In words: SEC.

Substance “trimeric post-fusion hMPV B2 F protein (trypsinized) (natural protein)” displayed a stoichiometry N of 3.

Usually stoichiometry N stands for the number of molecules, sites or subunits per partner or assembly.
